Measurements taken from patent publication EP2090664A1 (Universität Konstanz, dated 2009).
No end group written: not given here. *: point of attachment. Biotin = O=C1N[C@H]2[C@H](CS[C@H]2CCCCC(=O)*)N1

B1: N-terminal peptide Aβ (1-16) (peptide)
peptide: Biotin-GGGGGDAEFRHDSGYEVHHQK
notes: Biotinylated synthetic peptide of the ELISA series
B2: HCC (93-120)-peptide (peptide)
peptide: RKAFCSFQIYAVPWQGTMTLSKSTCQDA
notes: Synthetic peptide; also called synthetic HCC (93-120)-peptide
B3: human cystatin C (HCC) (other)
chain: SSPGKPPRLVGGPMDASVEEEGVRRALDFAVGEYNKASNDMYHSRALQVVRARKQIVAGVNYFLDVELGRTTCTKTQPNLDNCPFHDQPHLKRKAFCSFQIYAVPWQGTMTLSKSTCQDA
notes: also called intact HCC; complete HCC
B4: HCC (101-117)-peptide (peptide)
peptide: IYAVPWQGTMTLSKSTC
notes: Synthetic peptide; also called C-terminal HCC peptide

Legend:
[1] = target: B3; experiment: ELISA, biotinylated Aβ-peptides on adsorbed HCC
[2] = target: T1, N-Cysteinyl-Aβ (1-40) (N-terminal Cys attached via a thioether bond to UltraLink-Iodoacetyl gel); experiment: affinity-MS, HCC (93-120) on the immobilized Cys-Aβ (1-40) column
T1 construct: also called Cys-Aβ (1-40); immobilized Cys-Aβ-peptide

[3] = target: T2, β-amyloid (Aβ) Aβ (1-40); experiment: affinity-MS, Aβ (1-40) on the HCC micro-column
T2 construct: also called Aβ-peptide

[4] = target: T1, N-Cysteinyl-Aβ (1-40); experiment: summary of affinity-MS, epitope excision and ELISA results

Question: Does B1 bind [1]?
Answer: no binding

Question: Does B2 bind [2]?
Answer: binds

Question: Does B3 bind [3]?
Answer: binds

Question: Does B4 bind [4]?
Answer: binds
